Our source for the EC50: antigen density on the SLB and specific lysis of HLA.A2-expressing K562 cells pulsed with 0.1 nM 9V peptide after 6, 8 and 24 hours of coculture values is PMC11373591.

Assay [1] concerns the target HLA.A2-H12 / beta-2-microglobulin refolded with the 9V NY-ESO-1 peptide (A2/9V).
Assay [2] has as its target CD8 binding–deficient HLA.A2 (DT227/228KA) refolded with the 9V NY-ESO-1 peptide (A2^ΔCD8/9V).
Assay [3] concerns the target HLA.A2-H12 / beta-2-microglobulin refolded with the 9V NY-ESO-1 peptide (A2/9V). This is another data set of the same source.

Turning to c58c61 1G4hi TCR, the EC50: antigen density on the SLB at half-maximum T cell activation (Fura-2 calcium response); receptor by CRISPR-Cas9 knock-in (antigen molecules per μm^2) in assay [1] came to 0.04; in assay [2], 0.0736.

As to 1G4 TCR, the EC50: antigen density on the SLB at half-maximum T cell activation (Fura-2 calcium response); receptor by CRISPR-Cas9 knock-in (antigen molecules per μm^2) in assay [1] is 0.00703; in assay [2] it was 0.0181. The specific lysis of HLA.A2-expressing K562 cells pulsed with 0.1 nM 9V peptide after 6, 8 and 24 hours of coculture at 1:1 (luciferase); 1G4 by CRISPR-Cas9 in assay [3] came out at 65 % killing.
